Assay results reported in patent US20210221885A1.

Target: Eu3+ cryptate labeled TIM3 (Cisbio kit, cat# 63ADK000CTLPEB) (human) (UniProt Q8TDQ0)
Experiment: HTRF blocking assay (Cisbio kit), antibody added to a mixture of Tim3-EuK and Tag-Gal9; blocked ligand galectin-9; the unit is that of the concentration axis

Chain of Eu3+ cryptate labeled TIM3 (Cisbio kit, cat# 63ADK000CTLPEB) (human) (Q8TDQ0 22-202 limits assumed): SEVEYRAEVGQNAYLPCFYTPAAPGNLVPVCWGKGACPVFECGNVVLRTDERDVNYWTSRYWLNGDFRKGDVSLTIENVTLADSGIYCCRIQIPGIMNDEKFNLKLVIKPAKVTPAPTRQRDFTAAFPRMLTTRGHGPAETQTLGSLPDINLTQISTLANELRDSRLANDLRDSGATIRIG

IC50: 5.74 nM
Substance: F38-2E2 (ebioscience, cat#16-3109-85) (antibody)
